Reference: patent US20130122000A1 (TRELLIS BIOSCIENCE, published 2013)

Assays:
[1] = biological target: T1, HER3 extracellular domain (ECD) (UniProt P21860 20-643); assay: FortéBio biosensor (BLI), HER3 ECD on amine-reactive surface; average (Stdev 111,000)
T1 construct: extracellular domain; Coupled to an amine-reactive biosensor surface at 10-15 ug/ml; also called HER3 ECD; ErbB3

HER3:heregulin complex = biological target: T2, HER3:heregulin complex (UniProt P21860 20-643; Q02297 177-241, limits assumed); assay: FortéBio biosensor (BLI), HER3 ECD on amine surface loaded with heregulin at 10 ug/ml, antibody from 67 nM, 3-fold series; average (Stdev 113)
T2 construct: Non-covalent receptor-ligand complex, formed on the biosensor by adding heregulin to immobilised HER3 ECD; also called heregulin active complex with HER3; complex of HER3 ECD with heregulin
Protocol: The binding assay was repeated for two of the antibodies, 1G4 and 14B10 using the same FortéBio® method. HER3 ECD at 10-15 μg/ml was again captured onto the amine surface in the same buffer. Heregulin at 10 μg/ml was added to form the HER3:heregulin complex on the surface and the antibodies tested at 67 nM once again using three-fold dilution series and the data were fitted to determine binding constants.

[2] = biological target: T1, HER3 extracellular domain (ECD); assay: FortéBio biosensor (BLI), HER3 ECD on amine-reactive surface, antibody in solution from 67 nM, 3-fold series; average (Stdev 2,660)
Protocol: Of these, six of these murine antibodies were assayed quantitatively for their binding affinities to HER3 ECD according to the commercially available FortéBio® method. In this method, ECD at 10-15 μg/ml was captured onto an amine-reactive surface in 10 mM MES, pH 6.0 at 25° C. Binding capacity is tested by treating the surface with unlabeled antibody. As unlabeled antibody accumulates on the surface, the optical characteristics of the surface are changed, thus allowing measurement of mass accumulation without requiring labeling. This is a modification of the Biacore™ style analysis. The antibodies were tested at 67 nM as the highest concentration and diluted in a three-fold dilution series. Response data for the various concentrations were individually and globally fitted to determine the binding affinities.

[3] = biological target: HER3 on tumor cells (MCF-7, MB468) (UniProt P21860 20-1342, limits assumed); assay: cell-based or functional assay
Chain of HER3 on tumor cells (MCF-7, MB468) (P21860 20-1342 limits assumed): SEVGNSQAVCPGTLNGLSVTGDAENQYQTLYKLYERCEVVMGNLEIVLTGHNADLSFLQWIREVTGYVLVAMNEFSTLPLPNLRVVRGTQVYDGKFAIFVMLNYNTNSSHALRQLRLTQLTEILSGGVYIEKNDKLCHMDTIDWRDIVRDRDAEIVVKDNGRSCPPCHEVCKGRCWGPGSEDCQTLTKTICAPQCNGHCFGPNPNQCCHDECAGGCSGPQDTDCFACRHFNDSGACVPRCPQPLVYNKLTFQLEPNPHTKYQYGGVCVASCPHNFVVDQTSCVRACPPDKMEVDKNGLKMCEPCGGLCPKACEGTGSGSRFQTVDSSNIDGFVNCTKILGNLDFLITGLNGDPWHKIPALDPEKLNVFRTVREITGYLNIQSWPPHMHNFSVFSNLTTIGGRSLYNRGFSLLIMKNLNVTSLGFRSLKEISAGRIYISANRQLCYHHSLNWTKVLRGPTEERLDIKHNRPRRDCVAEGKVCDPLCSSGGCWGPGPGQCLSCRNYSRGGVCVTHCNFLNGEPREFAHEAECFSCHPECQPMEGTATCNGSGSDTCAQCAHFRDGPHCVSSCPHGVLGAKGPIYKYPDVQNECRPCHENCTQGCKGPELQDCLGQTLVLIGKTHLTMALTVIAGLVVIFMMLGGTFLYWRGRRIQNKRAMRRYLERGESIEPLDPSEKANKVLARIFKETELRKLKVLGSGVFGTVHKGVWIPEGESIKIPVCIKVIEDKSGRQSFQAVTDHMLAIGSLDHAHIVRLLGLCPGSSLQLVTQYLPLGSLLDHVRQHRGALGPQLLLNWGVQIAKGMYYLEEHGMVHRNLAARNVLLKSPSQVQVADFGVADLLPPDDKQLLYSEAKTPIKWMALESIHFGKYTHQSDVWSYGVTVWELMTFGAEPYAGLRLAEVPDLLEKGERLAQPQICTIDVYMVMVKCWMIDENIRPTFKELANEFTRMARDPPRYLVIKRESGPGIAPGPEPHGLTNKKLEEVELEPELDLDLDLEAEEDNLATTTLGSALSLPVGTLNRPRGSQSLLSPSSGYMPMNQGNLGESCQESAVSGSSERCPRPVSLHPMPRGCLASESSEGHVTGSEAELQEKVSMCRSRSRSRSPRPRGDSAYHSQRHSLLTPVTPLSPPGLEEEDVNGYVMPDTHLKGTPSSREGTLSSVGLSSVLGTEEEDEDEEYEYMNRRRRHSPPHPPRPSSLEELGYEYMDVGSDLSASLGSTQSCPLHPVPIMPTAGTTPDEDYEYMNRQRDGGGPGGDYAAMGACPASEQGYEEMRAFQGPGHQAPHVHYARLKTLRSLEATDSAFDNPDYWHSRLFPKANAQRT

T1 sequence (P21860 20-643 limits assumed): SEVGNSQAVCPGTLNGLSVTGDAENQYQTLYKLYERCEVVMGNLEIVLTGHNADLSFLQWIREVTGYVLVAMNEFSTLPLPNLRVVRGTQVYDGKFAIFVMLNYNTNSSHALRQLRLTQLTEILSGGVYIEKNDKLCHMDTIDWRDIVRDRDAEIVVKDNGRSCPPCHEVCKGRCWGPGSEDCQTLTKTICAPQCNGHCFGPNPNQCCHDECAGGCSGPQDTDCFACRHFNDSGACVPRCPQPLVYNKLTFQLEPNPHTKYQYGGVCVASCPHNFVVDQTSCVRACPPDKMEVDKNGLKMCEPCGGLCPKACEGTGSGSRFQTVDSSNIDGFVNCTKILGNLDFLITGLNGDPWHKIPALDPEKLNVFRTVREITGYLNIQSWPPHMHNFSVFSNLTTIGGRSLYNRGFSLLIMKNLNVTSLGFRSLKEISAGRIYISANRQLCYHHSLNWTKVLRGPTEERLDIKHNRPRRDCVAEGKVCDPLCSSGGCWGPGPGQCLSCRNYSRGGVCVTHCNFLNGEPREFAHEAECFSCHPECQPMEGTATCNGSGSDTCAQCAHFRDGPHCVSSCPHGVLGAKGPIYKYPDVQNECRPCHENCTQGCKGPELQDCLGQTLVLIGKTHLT
T2 sequence (P21860 20-643 limits assumed, one chain of several): as the sequence (P21860 20-643 limits assumed) above

Kd [1] | Kd (HER3:heregulin complex) | Kd [2] | IC50, inhibition of HER3 tyrosine phosphorylation in MCF-7 cells stimulated with heregulin [3] | Binder
165 nM | – | – | – | heregulin (ligand, UniProt Q02297-6 177-241, looked up, also called HRG) SHLVKCAEKEKTFCVNGGECFMVKDLSNPSRYLCKCPNEFTGDRCQNYVMASFYKHLGIEFMEAE
– | 0.327 nM | 2.81 nM | ~10 ng/mL | 1G4 mAb (antibody, V domains shown, Murine monoclonal antibody from a hybridoma; also called IG4; antibody 1G4) VH: GASVKMSCKASGYTFTDYVISWVKQRTGQGLEWIGEIYPGSGRYYHNEKFKGKATLTADKSSNTAYIQLSSLTSEDSAVYFCTRSLQRLRYFDVWGAGTTVTVSS VL: QSPATLSVTPGDRVSLSCRASQSISDYLHWYQQKSHESPRLLIKYGSQSISGIPSRFSGSGSGTDFTLSISSVETEDFGMYFCQQSNSWPLTFGAGTKLELKR
